Assay results published in PMC9923014, “BIN2 phosphorylates the Thr280 of CO to restrict its function in promoting Arabidopsis flowering” (Frontiers in Plant Science, 2023).

Molecular target: T1, MBP-BIN2 (Arabidopsis thaliana, UniProt Q39011 1-380)
T1 construct: also called BIN2-MBP; source: E. coli strain Transetta-DE3, purified
T1 sequence (looked up): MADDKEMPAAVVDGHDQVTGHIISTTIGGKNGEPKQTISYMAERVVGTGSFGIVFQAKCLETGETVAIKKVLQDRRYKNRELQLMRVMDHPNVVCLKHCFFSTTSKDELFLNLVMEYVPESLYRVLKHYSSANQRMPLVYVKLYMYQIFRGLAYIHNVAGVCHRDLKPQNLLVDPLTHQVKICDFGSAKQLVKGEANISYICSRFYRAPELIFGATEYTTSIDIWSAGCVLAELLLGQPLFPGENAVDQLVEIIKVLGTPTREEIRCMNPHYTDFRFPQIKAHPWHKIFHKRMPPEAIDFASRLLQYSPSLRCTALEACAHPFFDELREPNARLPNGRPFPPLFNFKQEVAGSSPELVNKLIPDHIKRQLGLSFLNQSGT
Experiment: pull-down; MBP pull-down on amylose resin; purified GST-CO incubated with MBP or MBP-BIN2 overnight at 4°C; 20 mM Tris pH 8.0, NaCl, 1 mM EDTA; immunoblot with anti-MBP and anti-GST
Conditions: both partners purified

binding result: binds
B1: GST-CO (natural protein, Arabidopsis thaliana, UniProt Q39057 1-373, looked up)
chain: MLKQESNDIGSGENNRARPCDTCRSNACTVYCHADSAYLCMSCDAQVHSANRVASRHKRVRVCESCERAPAAFLCEADDASLCTACDSEVHSANPLARRHQRVPILPISGNSFSSMTTTHHQSEKTMTDPEKRLVVDQEEGEEGDKDAKEVASWLFPNSDKNNNNQNNGLLFSDEYLNLVDYNSSMDYKFTGEYSQHQQNCSVPQTSYGGDRVVPLKLEESRGHQCHNQQNFQFNIKYGSSGTHYNDNGSINHNAYISSMETGVVPESTACVTTASHPRTPKGTVEQQPDPASQMITVTQLSPMDREARVLRYREKRKTRKFEKTIRYASRKAYAEIRPRVNGRFAKREIEAEEQGFNTMLMYNTGYGIVPSF
notes: also called CO-GST; source: E. coli strain Transetta-DE3, purified
